The record followed here is patent US20250136709A1 (DEVELOPMENT CENTER FOR BIOTECHNOLOGY, published 2025).

Some results are limits rather than exact numbers.

Assay [1] addresses human CD73 on cells (MDA-MB-231, Calu-1, KLM-1, human CD4+ T-cells) (human) (UniProt P21589). Briefly: cell-based or functional assay.
The target of assay [2] is T1, mouse CD73 (mouse, UniProt Q61503 29-551, limits assumed).
T1 construct: Expressed in F293 cells and used in ELISA
T1 sequence (looked up): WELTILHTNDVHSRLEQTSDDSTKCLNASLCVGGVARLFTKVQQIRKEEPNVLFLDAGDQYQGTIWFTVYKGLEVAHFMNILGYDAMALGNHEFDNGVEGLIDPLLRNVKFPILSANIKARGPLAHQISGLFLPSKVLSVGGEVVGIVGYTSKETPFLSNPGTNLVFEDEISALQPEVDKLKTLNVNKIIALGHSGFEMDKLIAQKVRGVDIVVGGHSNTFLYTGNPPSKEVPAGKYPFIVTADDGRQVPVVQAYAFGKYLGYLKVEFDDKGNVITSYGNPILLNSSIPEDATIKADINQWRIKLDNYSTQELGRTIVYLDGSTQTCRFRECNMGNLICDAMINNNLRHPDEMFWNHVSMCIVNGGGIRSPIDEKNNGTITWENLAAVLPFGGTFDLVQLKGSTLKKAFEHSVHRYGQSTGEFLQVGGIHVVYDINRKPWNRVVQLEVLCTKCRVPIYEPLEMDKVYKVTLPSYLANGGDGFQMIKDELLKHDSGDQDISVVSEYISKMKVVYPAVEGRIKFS
Briefly: ELISA, antibody titrated; panel mCD73. On the technique in general: In an ELISA, binding on a coated surface is turned into a signal by an enzyme label.

The next assay has as its target T2, mCD73hF4 (human; mouse, UniProt Q61503 307-551, limits assumed).
T2 construct: Mouse-human domain swapping protein, expressed in F293 cells
T2 sequence: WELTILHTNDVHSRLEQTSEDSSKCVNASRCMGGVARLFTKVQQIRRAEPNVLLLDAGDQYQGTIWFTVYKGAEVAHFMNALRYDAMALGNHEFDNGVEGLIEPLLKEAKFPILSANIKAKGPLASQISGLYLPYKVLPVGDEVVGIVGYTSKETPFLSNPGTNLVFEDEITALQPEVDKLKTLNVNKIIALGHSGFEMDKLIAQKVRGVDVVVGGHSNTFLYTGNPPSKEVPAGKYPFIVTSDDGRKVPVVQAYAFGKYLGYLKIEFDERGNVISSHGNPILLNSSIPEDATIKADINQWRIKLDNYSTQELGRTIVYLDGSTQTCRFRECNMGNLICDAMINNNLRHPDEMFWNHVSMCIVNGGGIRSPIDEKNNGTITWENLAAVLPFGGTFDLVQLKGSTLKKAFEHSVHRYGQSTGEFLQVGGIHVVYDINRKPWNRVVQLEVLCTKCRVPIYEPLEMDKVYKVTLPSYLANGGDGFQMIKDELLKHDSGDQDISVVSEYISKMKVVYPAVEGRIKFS
Briefly: ELISA, antibody titrated; panel mCD73 hF4.

In assay [3] the target is T1, mouse CD73. Briefly: ELISA, antibody titrated; left panel mCD73. From the text:
The binding affinities of the above four mutated antibodies, 10H5 antibody, Oleclumab, and IgG to mouse CD73 and mouse CD73 hF1 were respectively analyzed by using ELISA assay.

B1: Oleclumab (antibody, V domains shown)
VH: EVQLLESGGGLVQPGGSLRLSCAASGFTFSSYAYSWVRQAPGKGLEWVSAISGSGGRTYYADSVKGRFTISRDNSKNTLYLQMNSLRAEDTAVYYCARLGYGRVDEWGRGTLVTVSS
VL: QSVLTQPPSASGTPGQRVTISCSGSLSNIGRNPVNWYQQLPGTAPKLLIYLDNLRLSGVPDRFSGSKSGTSASLAISGLQSEDEADYYCATWDDSHPGWTFGGGTKLTVL
For the molecule B1, in assay [1], the AMP concentration in supernatant by LC/MS, MDA-MB-231 cells, 400 µM AMP, 10 nM antibody, 6 hours is 324 µM; the AMP concentration in supernatant by LC/MS, MDA-MB-231 cells, 400 µM AMP, 10 nM antibody, 24 hours amounted to 147 µM; the AMP consumption, Calu-1 cells, 10 nM antibody, 24 hrs is over 90%; the AMP consumption, MDA-MB-231 cells, 10 nM antibody, 6 hr is under 20%. For the same molecule, in assay [1], the AMP consumption, MDA-MB-231 cells, 10 nM antibody, 24 h is over 90% and the CFSE left-shift level of CD3/CD28-activated CD4+ T-cells with 400 µM AMP, 10 nM antibody, 3 days was found to be 72.9%. The EC50 (read off the curve) – broadly, the midpoint of the concentration-response curve – with mouse CD73 [2] is about 100 pM. The “EC50 (read off the curve)” value in the assay with mCD73hF4 was about 100 pM. In the assay with mouse CD73 [3], the concentration giving a half-maximal response (EC50 (read off the curve)) is about 100 pM.
